{"source": "paper PMC7253899", "about": "(Saudi Journal of Biological Sciences, 2020)", "proteins": {"B1": {"name": "TRAIP Leucine zipper domain (198-280 a.a) (domain or fragment, human, UniProt Q9BWF2 198-280, looked up)", "chain": "AVYCVSLKKEYENLKEARKASGEVADKLRKDLFSSRSKLQTVYSELDQAKLELKSAQKDLQSADKEIMSLKKKLTMLQETLNL"}}, "molecular_target": "the molecule itself", "test": "SEC-MALS"}
{"protein": "B1", "values": [{"measurement": "stoichiometry N", "value": 3}]}
